These results are taken from publication doi:10.1101/2021.04.07.438849 (bioRxiv, 2021).

The target of this test is T1, NTD of the SARS-CoV-2 spike protein (SARS-CoV-2 Wuhan-Hu-1, UniProt P0DTC2).
T1 construct: also called N-terminal domain
Description: ELISA. Conditions: both partners purified. Background: An ELISA detects its analyte on a solid surface through an enzyme-linked reagent.

B1: 8–131 (antibody, V domains shown)
VH: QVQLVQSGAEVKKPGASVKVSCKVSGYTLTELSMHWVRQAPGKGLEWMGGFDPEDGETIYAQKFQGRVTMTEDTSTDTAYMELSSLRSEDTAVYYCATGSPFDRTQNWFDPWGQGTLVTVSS
VL: QSVVTQPPSVSAAPGQKVTISCSGSRSNIGNNYVSWYQQLPGTAPKLLIYDYDKRPSGIPDRFSGSKSGTSATLGITGLQTGDEADYYCGTWDNSLSAGVFGGGTRLTVL
Regarding B1, the binding result is “binds”.
